Earlier results in paper PMC5529358.

How the values were obtained:
[1] = target: insulin receptor isoform B isoform B (Homo sapiens) (UniProt P06213)
[2] = target: insulin receptor isoform A isoform A (Homo sapiens) (UniProt P06213)

Sequence of insulin (P01308 90-110): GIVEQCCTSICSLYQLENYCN

insulin (from UniProt P01308)
Kd [1]: 1.4 nM

IGF-1 (from UniProt P05019)
Kd [2]: 120 nM
